Measured values as given in patent publication US6569419B2, “Methods for promoting production of myelin by Schwann cells” (ZymoGenetics, Inc., priority 2000, dated 2003).

B1: A275 F: Solution of murine Zcyto7 expressed in BHK cells, 1 mg/ml of PBS at pH 6.0 (protein, UniProt Q9QXT6 23-180, looked up)
Interleukin-17B: RNTKGKRKGQGRPSPLAPGPHQVPLDLVSRVKPYARMEEYERNLGEMVAQLRNSSEPAKKKCEVNLQLWLSNKRSLSPWGYSINHDPSRIPADLPEARCLCLGCVNPFTMQEDRSMVSVPVFSQVPVRRRLCPQPPRPGPCRQRVVMETIAVGCTCIF
B2: A258 F: Solution of human Zcyto7 expressed in BHK cells, 0.603 mg/ml of PBS at pH 6.0 (protein, UniProt Q9UHF5 21-180, looked up)
Interleukin-17B: QPRSPKSKRKGQGRPGPLAPGPHQVPLDLVSRMKPYARMEEYERNIEEMVAQLRNSSELAQRKCEVNLQLWMSNKRSLSPWGYSINHDPSRIPVDLPEARCLCLGCVNPFTMQEDRSMVSVPVFSQVPVRRRLCPPPPRTGPCRQRAVMETIAVGCTCIF
B3: A258 G: Solution of human Zcyto7 expressed in BHK cells, 0.089 mg/ml of PBS+0.1% BSA at pH 6.0 (protein, UniProt Q9UHF5 21-180, looked up)
Interleukin-17B: B2 Interleukin-17B

Legend:
[1] = system: primary rat Schwann cells; experiment: Induction of protein zero expression in Schwann cells (Western blot); assay type: cell-based; conditions: N2 medium + 1 μM progesterone
Description: Primary Schwann cells were prepared as described above using 1-day old CD rat neonates. Schwann cells were grown in DMEM, 10% fetal bovine serum (FBS), plus bovine pituitary extract (PEX) at 20 μg/ml and Forskolin at 2μM. The cells were weaned down to a low serum medium (“Li” medium with 1% FBS added to it). Li medium was comprised of DMEM/F12, 10 μg/ml tranferrin, 5 μg/ml insulin, 2 nM progesterone, 2 μM Forskolin, 20 μg/ml PEX, and 20 ng/ml Heregulin-beta-1 (R & D Systems).
The Schwann cells were grown to confluency in the low serum growth medium on poly-L-lysine-coated 10 cm tissue culture dishes. The cell medium was changed to N2 medium+1 μM progesterone with either Forskolin (Calbiochem) (10 μM and 25 μM) or 100 ng/ml of human Zcyto7. Control medium was Schwann cells in N2+1 μM progesterone for the whole time. Cells were harvested and placed in lysis buffer (125 mM Tris HCl, pH 7.0, 15% sucrose, 4% SDS, 10 mM EDTA, plus added Roche Complete-EDTA-free, protease inhibitor cocktail).
Protein concentrations of cell lysates were determined by Pierce BCA protein assay (Pierce Chemical Co., Rockford, Ill.). Forty micrograms of each cell lysate sample was run on a 4-12% Tris-Glycine gel (Novex) at 125 V for 1 hour 30 minutes, and transferred onto a PVDF membrane in a Hoeffer unit a 550 mAmps for 1 hour. Mouse monoclonal antibody to protein zero was used at 1:1000 dilution (1 μg/am final concentration) to probe the blot. A Vectastain biotin/streptavidin-HRP 2nd antibody system was used for amplication. The blot was developed with Pierce SuperSignal West Pico chemiluminescent substrate and scanned on a Boehringer-Mannheim Lumi-Imager.

primary Schwann cells = experiment: MBP induction in pure Schwann cell cultures (Western blot, densitometry); assay type: cell-based, rat; conditions: for Mean MBP induction (as percent of progesterone induction): mean ± SD; for MBP accumulation (in words): in the absence of progesterone pretreatment
Description: Primary Schwann cell cultures and dorsal root ganglia (DRG)-Schwann cell co-cultures were established. Rat primary Schwann cells were isolated as described by Einheber et al., J. Cell Biol. 123:1223-1236 (1994). Schwann cells were grown in 100 mm poly-L-lysine coated plates in Dulbecco's modified Eagles medium (DMEM) supplemented with 10% fetal bovine serum (FBS), pituitary extract (1 mg/ml) and 10 μM forskolin; up to 80-90% confluency.
The effect of Zcyto7 was tested in pure Schwann cell culture and in a co-culture of DRG and Schwann cells. Primary Schwann cells were grown to 80-90% confluency in 100 mm plates as described above. 12 h before treatment media was changed to 10 ml of N2 (defined medium) with or without 1 μM progesterone. The Zcyto7 solutions were added as 1.1 ml of 10×solution in N2 media, and cells were incubated for 48 hours (h). Cells were washed once with Hanks balanced salt solution (HBSS). The cell suspension was frozen on dry ice, thawed, pelleted and resuspended in 100 μl of lysis buffer, 125 mM tris (hydroxymethyl) aminomethane HCl (Tris HCl) pH7.0, 15% sucrose, 4% sodium dodecyl sulfate (SDS), 10 mM ethylenediaminetetraacetic acid (EDTA). Lysates were boiled for 5 minutes (min) on a water bath and cooled on ice. The protein concentration was determined using 4 μl in a BioRad BCA assay. Each sample was then supplemented with dithiothreitol (DTT) to a final concentration of 10 mM phenylmethylsulfonyl fluoride (PMSF)—to 2 mM, pepstatin and leupeptin—to 10 μg/ml.
60 μg of protein from each sample were separated on 4-12% Tris-Glycin NOVEX gels at 125 V constant for 1.5 h. Each gel contained vehicle control, vehicle supplemented with progesterone control, and randomly chosen samples from treatment groups. Transfer to poly (vinylidine difluoride) (PVFD) membrane was carried out according to the NOVEX electrotransfer protocol, at 25 V, for 40 min. Membranes were rinsed with tris buffered saline (TBS) for 3 min, and blocked with TBS/0.1% TWEEN-20/2% BSA for 1 h. Membranes were then incubated with 1:1000 dilution of anti-MBP mouse monoclonal IgG (Boehringer, Mannheim) in TBS/0.1% TWEEN-20, 0.5% BSA overnight, at 4° C. After washing 4 times for 30 min with TBS/0.1% TWEEN-20, membranes were incubated with anti-mouse horseradish peroxidase conjugate (1:20,000 dilution in TBS/0.1% TWEEN-20, incubated with SUPERSIGNAL chemiluminescent HRP substrate (Pierce Chemical Co., Rockford, Ill.) and exposed to Kodak X-Ray film for 15-20 min.
Density of myelin basic protein (MBP) bands was measured on LYNX Densitometer (Applied imaging) with ILLUMA System and expressed as percent progesterone-induced control MBP.
In experiment 1, the effect of the 4 different solutions of Zcyto7 on MBP accumulation was evaluated in pure Schwann cell cultures, with and without progesterone pretreatment. Solution A275F was evaluated in experiment 1 at 1 ng/ml, 10 ng/ml, 100 ng/ml and 1 μg/ml.
Four controls were included in each experiment: test vehicle alone, vehicle supplemented with progesterone, vehicle supplemented with IL-17, and vehicle supplemented with progesterone and IL-17 [See J. Immunol, 150:5445-5456 (1993)]. Three replicates were set up per each condition.

[2] = system: DRG-Schwann cell co-cultures; experiment: Production of myelin (MBP immunofluorescence signal density) in DRG-Schwann cell co-cultures; assay type: cell-based, rat; conditions: DRG-Schwann cell co-culture, 3.5 weeks
Description: Dissociated neuronal cultures from normal rats were established as described by Kleitman et al., Tissue culture methods for the study of myelination, in Culturing Nerve Cells, Banker and Goslin, Eds, pp. 338-378(MIT Press, Cambridge, Mass., 1992). Briefly, DRG were dissected out from the rats, treated with 0.25% trypsin, mechanically dissociated, washed, and resuspended in L15 medium with 10% fetal calf serum. The neurons were plated onto 12-mm glass coverslips coated with ammoniated rat tail collagen (Biomedical Technologies, Inc.) for microscopic evaluation. Starting one day following the dissection, cultures were treated over a 2-week period with three cycles of 5-fluorodeoxyuridine and uridine (both at 10 μM) in standard medium to assure a pure neuronal population. Standard medium consisted of minimum essential medium (MEM) supplemented with 10% FBS, 2 mM glutamine, 0.4% glucose, and 50 ng/m β-nerve growth factor (β-NGB).
Myelinating co-cultures were established by seeding the purified neurons with rat primary Schwann cells as described Einheber, et al., id.
After establishing the myelinating co-cultures, Schwann cells were allowed to proliferate for one week attached to the neurons. The medium was then changed to 15% and 50 μg/ml ascorbate was added to promote basal lamina formation and to initiate myelination. The effect of the Zcyto7 was evaluated for 3.5 weeks in the presence of ascorbate, with the medium changed every two days. Cultures were then fixed in 3.7% formaldehyde for 10 minutes and made permeable in 100% methanol for 15 minutes at −20° C. Following with PBS having 3% BSA, the samples were incubated with mouse anti-MBP antibody (Boehringer-Mannheim) overnight, washed and incubated with Cy3-labeled anti-mouse IgG. Samples were washed, mounted in VECTASHIELD and examined by epifluorescence with a Zeiss AXIOSKOP microscope.
Myelin production was quantitatively and qualitatively evaluated, and myelin density was determined for each of the five replicates per condition. Six representative regions in each sample were captured using a low-level light COHUE digital camera, and the density of fluorescent signal determined using the National Institutes of Health (NIH) Scion Image. The mean and standard deviation of myelin density was calculated for each group and converted to a percentage by dividing by the density seen in the appropriate control culture. Morphometric measurements were carried out using double blind analysis.
Solution A258F was chosen on the basis of the results of experiment 1 was evaluated in experiment 2 for myelin formation in DRG-Schwann co-cultures. […]

[3] = 1 ng/ml, without progesterone, pure Schwann cells, 48 h
[4] = 10 ng/ml, without progesterone, pure Schwann cells, 48 h
[5] = 100 ng/ml, without progesterone, pure Schwann cells, 48 h
[6] = 1 μg/ml, without progesterone, pure Schwann cells, 48 h
[7] = Prog + 1 ng/ml, pure Schwann cells, 48 h
[8] = Prog + 10 ng/ml, pure Schwann cells, 48 h
[9] = Prog + 100 ng/ml, pure Schwann cells, 48 h
[10] = Prog + 1 μg/ml, pure Schwann cells, 48 h

Molecule	MBP Signal Density (mean ± SD) ([2]; Ascorbic acid (AA) + 10 ng/ml)	Mean MBP induction (as percent of progesterone induction) (primary Schwann cells; [3])	Mean MBP induction (as percent of progesterone induction) (primary Schwann cells; [4])	MBP accumulation (in words) (primary Schwann cells; 100 ng/ml)	Mean MBP induction (as percent of progesterone induction) (primary Schwann cells; [5])	Mean MBP induction (as percent of progesterone induction) (primary Schwann cells; [6])	Mean MBP induction (as percent of progesterone induction) (primary Schwann cells; [7])	Mean MBP induction (as percent of progesterone induction) (primary Schwann cells; [8])	Mean MBP induction (as percent of progesterone induction) (primary Schwann cells; [9])	Mean MBP induction (as percent of progesterone induction) (primary Schwann cells; [10])	also measured
C=C[C@@]1(C)CC(=O)[C@]2(O)[C@@]3(C)[C@@H](O)CCC(C)(C)[C@@H]3[C@H](O)[C@H](OC(C)=O)[C@@]2(C)O1 [Forskolin]	–	–	–	–	–	–	–	–	–	–	Relative percentage of P zero protein (media control = 100%) ([1]; 10 μM): 199%; Relative percentage of P zero protein (media control = 100%) ([1]; 25 μM): 30%
IL-17: Interleukin-17; solution at 50 μg/ml of PBS, pH 7.0; control in the experiments	11.65 ± 0.78	–	–	–	–	–	–	–	–	–	Mean MBP induction (as percent of progesterone induction) (primary Schwann cells; Prog + IL-17 control, in column A258 F): 199.30 ± 23.21% of progesterone induction; Mean MBP induction (as percent of progesterone induction) (primary Schwann cells; Prog + IL-17 control, in column A275 F): 214.50 ± 103.80% of progesterone induction; Mean MBP induction (as percent of progesterone induction) (primary Schwann cells; Prog + IL-17 control, in column A311 F): 180.60 ± 123.80% of progesterone induction
B1	–	102.40 ± 21.33% of progesterone induction	123.40 ± 50.34% of progesterone induction	significantly induced MBP accumulation	210.60 ± 9708% of progesterone induction	170.90 ± 49.63% of progesterone induction	48.77 ± 45.44% of progesterone induction	121.00 ± 78.16% of progesterone induction	278.00 ± 95.43% of progesterone induction	280.80 ± 62.95% of progesterone induction	–
B2	47.74 ± 23.60	81.47 ± 7.75% of progesterone induction	41.59 ± 32.29% of progesterone induction	significantly induced MBP accumulation	117.00 ± 42.89% of progesterone induction	152.80 ± 27.95% of progesterone induction	117.00 ± 15.83% of progesterone induction	187.20 ± 18.43% of progesterone induction	265.90 ± 32.09% of progesterone induction	174.30 ± 25.59% of progesterone induction	Concentration of maximal effect on MBP accumulation (primary Schwann cells; pure Schwann cell cultures): 100 ng/mL; MBP induction (in words) (primary Schwann cells; pure Schwann cell cultures): induced MBP accumulation in dose-dependent manner; MBP Signal Density (mean ± SD) ([2]; Ascorbic acid (AA) + 1 ng/ml): 20.04 ± 8.55; MBP Signal Density (mean ± SD) ([2]; Ascorbic acid (AA) + 100 ng/ml): 74.74 ± 19.22
B3	–	–	–	significantly induced MBP accumulation	210 ± 115.20% of progesterone induction	–	–	–	152 ± 19.38% of progesterone induction	–	–
